# Results taken from publication PMC10663500, “High-throughput analysis system of interaction kinetics for data-driven antibody design” (Scientific Reports, 2023).
# B1: toripalimab Fab L.N33Y (Fab, V domains shown)
# VH: QGQLVQSGAEVKKPGASVKVSCKASGYTFTDYEMHWVRQAPIHGLEWIGVIESETGGTAYNQKFKGRVTITADKSTSTAYMELSSLRSEDTAVYYCAREGITTVATTYYWYFDVWGQGTTVTVSS
# VL: DVVMTQSPLSLPVTLGQPASISCRSSQSIVHSYGNTYLEWYLQKPGQSPQLLIYKVSNRFSGVPDRFSGSGSGTDFTLKISRVEAEDVGVYYCFQGSHVPLTFGQGTKLEIK
# notes: as the heavy chain of Sm3; light chain of Sm3 with this change; numbers count from the chain's first residue; source: Brevibacillus, culture supernatant (ammonium sulfate precipitate); not shown: 6xHis, C-terminal, kept; 6xHN, C-terminal, kept
# B2: toripalimab Fab L.N35A (Fab, V domains shown)
# VH: QGQLVQSGAEVKKPGASVKVSCKASGYTFTDYEMHWVRQAPIHGLEWIGVIESETGGTAYNQKFKGRVTITADKSTSTAYMELSSLRSEDTAVYYCAREGITTVATTYYWYFDVWGQGTTVTVSS
# VL: DVVMTQSPLSLPVTLGQPASISCRSSQSIVHSNGATYLEWYLQKPGQSPQLLIYKVSNRFSGVPDRFSGSGSGTDFTLKISRVEAEDVGVYYCFQGSHVPLTFGQGTKLEIK
# notes: as for B1
# B3: toripalimab Fab L.K55A (Fab, V domains shown)
# VH: QGQLVQSGAEVKKPGASVKVSCKASGYTFTDYEMHWVRQAPIHGLEWIGVIESETGGTAYNQKFKGRVTITADKSTSTAYMELSSLRSEDTAVYYCAREGITTVATTYYWYFDVWGQGTTVTVSS
# VL: DVVMTQSPLSLPVTLGQPASISCRSSQSIVHSNGNTYLEWYLQKPGQSPQLLIYAVSNRFSGVPDRFSGSGSGTDFTLKISRVEAEDVGVYYCFQGSHVPLTFGQGTKLEIK
# notes: as for B1
# B4: toripalimab Fab L.T36A (Fab, V domains shown)
# VH: QGQLVQSGAEVKKPGASVKVSCKASGYTFTDYEMHWVRQAPIHGLEWIGVIESETGGTAYNQKFKGRVTITADKSTSTAYMELSSLRSEDTAVYYCAREGITTVATTYYWYFDVWGQGTTVTVSS
# VL: DVVMTQSPLSLPVTLGQPASISCRSSQSIVHSNGNAYLEWYLQKPGQSPQLLIYKVSNRFSGVPDRFSGSGSGTDFTLKISRVEAEDVGVYYCFQGSHVPLTFGQGTKLEIK
# notes: as for B1
# B5: toripalimab Fab L.L38A (Fab, V domains shown)
# VH: QGQLVQSGAEVKKPGASVKVSCKASGYTFTDYEMHWVRQAPIHGLEWIGVIESETGGTAYNQKFKGRVTITADKSTSTAYMELSSLRSEDTAVYYCAREGITTVATTYYWYFDVWGQGTTVTVSS
# VL: DVVMTQSPLSLPVTLGQPASISCRSSQSIVHSNGNTYAEWYLQKPGQSPQLLIYKVSNRFSGVPDRFSGSGSGTDFTLKISRVEAEDVGVYYCFQGSHVPLTFGQGTKLEIK
# notes: as for B1
# B6: toripalimab Fab L.V56Y (Fab, V domains shown)
# VH: QGQLVQSGAEVKKPGASVKVSCKASGYTFTDYEMHWVRQAPIHGLEWIGVIESETGGTAYNQKFKGRVTITADKSTSTAYMELSSLRSEDTAVYYCAREGITTVATTYYWYFDVWGQGTTVTVSS
# VL: DVVMTQSPLSLPVTLGQPASISCRSSQSIVHSNGNTYLEWYLQKPGQSPQLLIYKYSNRFSGVPDRFSGSGSGTDFTLKISRVEAEDVGVYYCFQGSHVPLTFGQGTKLEIK
# notes: as for B1
# B7: toripalimab Fab L.V56A (Fab, V domains shown)
# VH: QGQLVQSGAEVKKPGASVKVSCKASGYTFTDYEMHWVRQAPIHGLEWIGVIESETGGTAYNQKFKGRVTITADKSTSTAYMELSSLRSEDTAVYYCAREGITTVATTYYWYFDVWGQGTTVTVSS
# VL: DVVMTQSPLSLPVTLGQPASISCRSSQSIVHSNGNTYLEWYLQKPGQSPQLLIYKASNRFSGVPDRFSGSGSGTDFTLKISRVEAEDVGVYYCFQGSHVPLTFGQGTKLEIK
# notes: as for B1
# B8: toripalimab Fab L.K55Y (Fab, V domains shown)
# VH: QGQLVQSGAEVKKPGASVKVSCKASGYTFTDYEMHWVRQAPIHGLEWIGVIESETGGTAYNQKFKGRVTITADKSTSTAYMELSSLRSEDTAVYYCAREGITTVATTYYWYFDVWGQGTTVTVSS
# VL: DVVMTQSPLSLPVTLGQPASISCRSSQSIVHSNGNTYLEWYLQKPGQSPQLLIYYVSNRFSGVPDRFSGSGSGTDFTLKISRVEAEDVGVYYCFQGSHVPLTFGQGTKLEIK
# notes: as for B1
# B9: toripalimab Fab L.S57Y (Fab, V domains shown)
# VH: QGQLVQSGAEVKKPGASVKVSCKASGYTFTDYEMHWVRQAPIHGLEWIGVIESETGGTAYNQKFKGRVTITADKSTSTAYMELSSLRSEDTAVYYCAREGITTVATTYYWYFDVWGQGTTVTVSS
# VL: DVVMTQSPLSLPVTLGQPASISCRSSQSIVHSNGNTYLEWYLQKPGQSPQLLIYKVYNRFSGVPDRFSGSGSGTDFTLKISRVEAEDVGVYYCFQGSHVPLTFGQGTKLEIK
# notes: as for B1
# B10: toripalimab Fab L.S57A (Fab, V domains shown)
# VH: QGQLVQSGAEVKKPGASVKVSCKASGYTFTDYEMHWVRQAPIHGLEWIGVIESETGGTAYNQKFKGRVTITADKSTSTAYMELSSLRSEDTAVYYCAREGITTVATTYYWYFDVWGQGTTVTVSS
# VL: DVVMTQSPLSLPVTLGQPASISCRSSQSIVHSNGNTYLEWYLQKPGQSPQLLIYKVANRFSGVPDRFSGSGSGTDFTLKISRVEAEDVGVYYCFQGSHVPLTFGQGTKLEIK
# notes: as for B1
# B11: toripalimab Fab L.N35Y (Fab, V domains shown)
# VH: QGQLVQSGAEVKKPGASVKVSCKASGYTFTDYEMHWVRQAPIHGLEWIGVIESETGGTAYNQKFKGRVTITADKSTSTAYMELSSLRSEDTAVYYCAREGITTVATTYYWYFDVWGQGTTVTVSS
# VL: DVVMTQSPLSLPVTLGQPASISCRSSQSIVHSNGYTYLEWYLQKPGQSPQLLIYKVSNRFSGVPDRFSGSGSGTDFTLKISRVEAEDVGVYYCFQGSHVPLTFGQGTKLEIK
# notes: as for B1
# B12: toripalimab Fab H.V50A (Fab, V domains shown)
# VH: QGQLVQSGAEVKKPGASVKVSCKASGYTFTDYEMHWVRQAPIHGLEWIGAIESETGGTAYNQKFKGRVTITADKSTSTAYMELSSLRSEDTAVYYCAREGITTVATTYYWYFDVWGQGTTVTVSS
# VL: DVVMTQSPLSLPVTLGQPASISCRSSQSIVHSNGNTYLEWYLQKPGQSPQLLIYKVSNRFSGVPDRFSGSGSGTDFTLKISRVEAEDVGVYYCFQGSHVPLTFGQGTKLEIK
# notes: heavy chain of Sm3 with this change; numbers count from the chain's first residue; as the light chain of Sm3; source: Brevibacillus, culture supernatant (ammonium sulfate precipitate); not shown: 6xHis, C-terminal, kept; 6xHN, C-terminal, kept
# B13: toripalimab Fab L.G34A (Fab, V domains shown)
# VH: QGQLVQSGAEVKKPGASVKVSCKASGYTFTDYEMHWVRQAPIHGLEWIGVIESETGGTAYNQKFKGRVTITADKSTSTAYMELSSLRSEDTAVYYCAREGITTVATTYYWYFDVWGQGTTVTVSS
# VL: DVVMTQSPLSLPVTLGQPASISCRSSQSIVHSNANTYLEWYLQKPGQSPQLLIYKVSNRFSGVPDRFSGSGSGTDFTLKISRVEAEDVGVYYCFQGSHVPLTFGQGTKLEIK
# notes: as for B1
# B14: toripalimab Fab L.T36Y (Fab, V domains shown)
# VH: QGQLVQSGAEVKKPGASVKVSCKASGYTFTDYEMHWVRQAPIHGLEWIGVIESETGGTAYNQKFKGRVTITADKSTSTAYMELSSLRSEDTAVYYCAREGITTVATTYYWYFDVWGQGTTVTVSS
# VL: DVVMTQSPLSLPVTLGQPASISCRSSQSIVHSNGNYYLEWYLQKPGQSPQLLIYKVSNRFSGVPDRFSGSGSGTDFTLKISRVEAEDVGVYYCFQGSHVPLTFGQGTKLEIK
# notes: as for B1
# B15: toripalimab Fab L.G34Y (Fab, V domains shown)
# VH: QGQLVQSGAEVKKPGASVKVSCKASGYTFTDYEMHWVRQAPIHGLEWIGVIESETGGTAYNQKFKGRVTITADKSTSTAYMELSSLRSEDTAVYYCAREGITTVATTYYWYFDVWGQGTTVTVSS
# VL: DVVMTQSPLSLPVTLGQPASISCRSSQSIVHSNYNTYLEWYLQKPGQSPQLLIYKVSNRFSGVPDRFSGSGSGTDFTLKISRVEAEDVGVYYCFQGSHVPLTFGQGTKLEIK
# notes: as for B1
# Experiments:
# [1] = biological target: T1, human programmed cell death protein 1 (hPD-1) C93S (aa 24-167) (Homo sapiens, UniProt Q15116, C93S); assay: SPR; Carterra LSA; Fab from the ammonium sulfate precipitate of the culture supernatant immobilised on a NiHC200M chip; hPD-1 (1-1024 nM) or mPD-1-Fc (4-1024 nM) as analyte, fourfold dilution series, no regeneration; HBS-EP pH 7.4, 25 °C; medians over the spots of a construct, KD = koff/kon; conditions: one partner purified
# T1 construct: made as a fusion with a TEV site and human Fc; the Fc was cut off with TEV protease; source: Expi293F, purified (Protein A, TEV cleavage of Fc, SEC; monomer fractions); not shown: Fc (human), C-terminal, cleaved
# In short: (§1)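 Fabs from Brevibacillus culture supernatants were ammonium sulfate-precipitated, redissolved in HBS-EP and captured in duplicate on a NiHC200M chip (Carterra LSA, 25 °C). Human PD-1 (1–1024 nM) or mouse PD-1-Fc (4–1024 nM) flowed as fourfold series without regeneration, with 10 min association and 5 min dissociation; unconfirmed binders were set to kon 10^3 […], koff 10^−2 s^−1. Rates came from kdka model fits (slow- or fast-dissociation settings, best fit); KD is koff/kon from per-construct medians.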
# [2] = biological target: T2, mouse programmed cell death protein 1 Fc fusion protein (mPD-1-Fc), mPD-1 C60S (aa 25-167) (Mus musculus, UniProt Q02242, stabilised); assay: as above; conditions: one partner purified
# T2 construct: not cleaved; source: Expi293F, purified (Protein A, SEC; dimeric fraction); not shown: Fc (human), C-terminal, kept
# In short: as §1
# T1 sequence (Q15116 24-167 C93S): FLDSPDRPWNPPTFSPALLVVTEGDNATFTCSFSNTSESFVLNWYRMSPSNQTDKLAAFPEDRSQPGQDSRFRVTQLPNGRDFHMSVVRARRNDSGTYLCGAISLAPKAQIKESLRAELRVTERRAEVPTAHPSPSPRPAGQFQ
Binder,Kd [1],koff [1],kon [1],Kd [2],koff [2],kon [2]
B1,< 0.585 nM,< 1e-05 s⁻¹,17100 M⁻¹ s⁻¹,192 nM,0.00979 s⁻¹,50900 M⁻¹ s⁻¹
B2,< 1.31 nM,< 1e-05 s⁻¹,7640 M⁻¹ s⁻¹,189 nM,0.00781 s⁻¹,41200 M⁻¹ s⁻¹
B3,< 1.18 nM,< 1e-05 s⁻¹,8480 M⁻¹ s⁻¹,182 nM,0.00821 s⁻¹,45200 M⁻¹ s⁻¹
B4,< 1.51 nM,< 1e-05 s⁻¹,6610 M⁻¹ s⁻¹,331 nM,0.0155 s⁻¹,46700 M⁻¹ s⁻¹
B5,< 1.11 nM,< 1e-05 s⁻¹,8980 M⁻¹ s⁻¹,121 nM,0.00533 s⁻¹,44000 M⁻¹ s⁻¹
B6,< 1.47 nM,< 1e-05 s⁻¹,6790 M⁻¹ s⁻¹,290 nM,0.0104 s⁻¹,35800 M⁻¹ s⁻¹
B7,< 0.489 nM,< 1e-05 s⁻¹,20400 M⁻¹ s⁻¹,202 nM,0.00784 s⁻¹,38700 M⁻¹ s⁻¹
B8,1.4 nM,1.3e-05 s⁻¹,9280 M⁻¹ s⁻¹,235 nM,0.0094 s⁻¹,40000 M⁻¹ s⁻¹
B9,< 0.338 nM,< 1e-05 s⁻¹,29500 M⁻¹ s⁻¹,119 nM,0.0054 s⁻¹,45300 M⁻¹ s⁻¹
B10,< 0.698 nM,< 1e-05 s⁻¹,14300 M⁻¹ s⁻¹,209 nM,0.00805 s⁻¹,38500 M⁻¹ s⁻¹
B11,< 0.431 nM,< 1e-05 s⁻¹,23200 M⁻¹ s⁻¹,194 nM,0.00881 s⁻¹,45500 M⁻¹ s⁻¹
B12,1.66 nM,2.65e-05 s⁻¹,15900 M⁻¹ s⁻¹,728 nM,0.0237 s⁻¹,32500 M⁻¹ s⁻¹
B13,2.35 nM,4.8e-05 s⁻¹,20500 M⁻¹ s⁻¹,202 nM,0.00961 s⁻¹,47500 M⁻¹ s⁻¹
B14,< 0.372 nM,< 1e-05 s⁻¹,26900 M⁻¹ s⁻¹,164 nM,0.00757 s⁻¹,46100 M⁻¹ s⁻¹
B15,< 0.445 nM,< 1e-05 s⁻¹,22500 M⁻¹ s⁻¹,154 nM,0.00613 s⁻¹,39900 M⁻¹ s⁻¹
